Reference: publication PMC3795569, “Crystal structure of the N-terminal domain of MinC dimerized via domain swapping” (Journal of Synchrotron Radiation, 2013)

Biological target: the molecule itself
Experiment: SEC; size-exclusion chromatography of EcoMinCNTD in a broad range of protein concentrations

B1: Escherichia coli MinC N-terminal domain (EcoMinCNTD), residues 1-105 (domain or fragment, UniProt P18196 1-105, looked up)
chain: MSNTPIELKGSSFTLSVVHLHEAEPKVIHQALEDKIAQAPAFLKHAPVVLNVSALEDPVNWSAMHKAVSATGLRVIGVSGCKDAQLKAEIEKMGLPILTEGKEKA
notes: MinC (septum site-determining protein), Escherichia coli, N-terminal domain, residues 1-105; amplified from E. coli genomic DNA (ATCC No. 700926D-5); Cloned into a modified pET-28a vector (BamHI/XhoI); The printed molecular weight is 11863 Da; also called unfused-EcoMinCNTD; source: E. coli BL21 (DE3), purified (Ni-NTA, TEV cleavage, size-exclusion chromatography)
stoichiometry N: 2
